Read-outs that look alike come from different tables or passages of the source.
B1: thermolysin (protein)
chain: ITGTSTVGVGRGVLGDQKNINTTYSTYYYLQDNTRGNGIFTYDAKYRTTLPGSLWADADNQFFASYDAPAVDAHYYAGVTYDYYKNVHNRLSYDGNNAAIRSSVHYSQGYNNAFWNGSQMVYGDGDGQTFIPLSGGIDVVAHELTHAVTDYTAGLIYQNESGAINEAISDIFGTLVEFYANKNPDWEIGEDVYTPGISGDSLRSMSDPAKYGDPDHYSKRYTGTQDNGGVHINSGIINKAAYLISQGGTHYGVSVVGIGRDKLGKIFYRALTQYLTPTSNFSQLRAAAVQSATDLYGSTSQEVASVKQAFDAVGVK
B2: collagenase class II (protein)
chain: VQNESKRYTVSYLKTLNYYDLVDLLVKTEIENLPDLFQYSSDAKEFYGNKTRMSFIMDEIGRRAPQYTEIDHKGIPTLVEVVRAGFYLGFHNKELNEINKRSFKERVIPSILAIQKNPNFKLGTEVQDKIVSATGLLAGNETAPPEVVNNFTPILQDCIKNIDRYALDDLKSKALFNVLAAPTYDITEYLRATKEKPENTPWYGKIDGFINELKKLALYGKINDNNSWIIDNGIYHIAPLGKLHSNNKIGIETLTEVMKVYPYLSMQHLQSADQIKRHYDSKDAEGNKIPLDKFKKEGKEKYCPKTYTFDDGKVIIKAGARVEEEKVKRLYWASKEVNSQFFRVYGIDKPLEEGNPDDILTMVIYNSPEEYKLNSVLYGYDTNNGGMYIEPEGTFFTYEREAQESTYTLEELFRHEYTHYLQGRYAVPGQWGRTKLYDNDRLTWYEEGGAELFAGSTRTSGILPRKSIVSNIHNTTRNNRYKLSDTVHSKYGASFEFYNYACMFMDYMYNKDMGILNKLNDLAKNNDVDGYDNYIRDLSSNYALNDKYQDHMQERIDNYENLTVPFVADDYLVRHAYKNPNEIYSEISEVAKLKDAKSEVKKSQYFSTFTLRGSYTGGASKGKLEDQKAMNKFIDDSLKKLDTYSWSGYKTLTAYFTNYKVDSSNRVTYDVVFHGYLPNEGDSKNSLPYGKINGTYKGTEKEKIKFSSEGSFDPDGKIVSYEWDFGDGNKSNEENPEHSYDKVGTYTVKLKVTDDKGESSVSTTTAEIKDLSENKLPVIYMHVPKSGALNQKVVFYGKGTYDPDGSIAGYQWDFGDGSDFSSEQNPSHVYTKKGEYTVTLRVMDSSGQMSEKTMKIKITDPVYPIGTEKEPNNSKETASGPIVPGIPVSGTIENTSDQDYFYFDVITPGEVKIDINKLGYGGATWVVYDENNNAVSYATDDGQNLSGKFKADKPGRYYIHLYMFNGSYMPYRINIEGSVGR

How the values were obtained:
[1] = tested on: T1, 5FAMcollagenPPT protease substrate
T1 sequence: AGGPLGPPGPGGK

[2] = target: T2, 5FAMcollagenPPT protease substrate
T2 chain: AGGPLGPPGPGGK

Row | Molecule | Km, with 4.14 mM calcium (FRET cleavage assay) [1] | Km, without calcium (FRET cleavage assay) [1] | Vmax, with 4.14 mM calcium (FRET cleavage assay) [1] | Vmax, without calcium (FRET cleavage assay) [1] | cleavage of substrate (FRET assay, Example 3, 0.3125-10 µg/mL enzyme, 50 µM substrate) [1] | Km (FRET cleavage assay, Example 3) [2] | Km, without calcium (FRET cleavage assay) [2] | Vmax (FRET cleavage assay, Example 3) [2] | Vmax, without calcium (FRET cleavage assay) [2] | further results
1 | Neutral Protease | 45.1 µM | 74.1 µM | 29.3 RFU/min/µg | 20 RFU/min/µg | – | – | – | – | – | –
2 | chymotrypsin | – | – | – | – | the mammalian proteases trypsin, chymotrypsin, and elastase do not cleave the protease substrate | – | – | – | – | –
3 | collagenase class I | 32.9 µM | 38.1 µM | 1010 RFU/min/µg | 1700 RFU/min/µg | – | – | – | – | – | Km (FRET cleavage assay, Example 3) [1]: 28.2 µM; Vmax (FRET cleavage assay, Example 3) [1]: 909 RFU/min/µg
4 | trypsin | – | – | – | – | the mammalian proteases trypsin, chymotrypsin, and elastase do not cleave the protease substrate | – | – | – | – | –
5 | B1 | – | – | – | – | – | 34.6 µM | 30.4 µM | 24.6 RFU/min/µg | 23.7 RFU/min/µg | Km, with 4.14 mM calcium (FRET cleavage assay) [2]: 24.8 µM; Vmax, with 4.14 mM calcium (FRET cleavage assay) [2]: 25.5 RFU/min/µg
6 | B2 | – | – | – | – | – | 24.5 µM | 24.1 µM | 5000 RFU/min/µg | 3240 RFU/min/µg | –

Reference: patent US20190004036
